This test addresses SARS-CoV-2 spike protein (wild type) on pseudovirus (SARS-CoV-2) (UniProt P0DTC2). The test can be described thus: cell-based or functional assay.

For the substance “ACE2-Ig (positive control of the pseudovirus neutralisation assay) (Fc fusion)”, the IC50, pseudovirus neutralisation (positive control) turned out to be 0.9 µg/mL.

The values above are taken from CN116744966A.
